Earlier results in patent US11458170B2, “Pharmaceutical composition comprising erythrocytes encapsulating a PLP-dependent enzyme and, a non-phosphate PLP precursor” (ERYTECH PHARMA, priority 2014, dated 2022).

Tests used:
[1] = in vivo
[2] = not given; remark: listed apart in the source

Row | Compound | Plasma half-life of free PLP [1] | Plasma activity of the enzyme (24 h after IV injection, immunodeficient mice, determined in vitro without adding PLP) | Half-life in mice (mice) [h] | Treated animals developing anti-rMETase antibodies (IgG, IgM) ([2]; macaques) | Death after anaphylactic shock ([2]; second IV injection 28 days after the first) | Anaphylactic shock after second injection ([2]; second IV injection 28 days after the first, six monkeys)
1 | Cc1ncc(COP(=O)(O)O)c(C=O)c1O [PLP, pyridoxal phosphate] | about 15 minutes | – | – | – | – | –
2 | rMETase: recombinant methioninase produced in Escherichia coli from the Pseudomonas putida gene (Sun et al.) | – | undetectable | 2 | four out of six | death of one of the two animals | in two monkeys an anaphylactic shock
